# Assay results reported in paper PMC4081085.
# Key:
# Assay in all cases: fluorescence polarization
# [1] = tested on: PARP-3 R103A; details: 5' phosphate at nick, position 24, FP: 5 nM labeled DNA, 30 min, RT, PARP-1/-2 buffer per cited ref 19, PARP-3 in 12 mM HEPES pH 8.0, 30 mM KCl (low) or 60 mM KCl (intermediate), 0.12 mM EDTA
# [2] = tested on: PARP-3 Y150F; details: 5' phosphate at nick, position 24, FP: 5 nM labeled DNA, 30 min, RT, PARP-1/-2 buffer per cited ref 19, PARP-3 in 12 mM HEPES pH 8.0, 30 mM KCl (low) or 60 mM KCl (intermediate), 0.12 mM EDTA
# [3] = tested on: dNTR-PARP-3; details: low ionic strength buffer?, 5' phosphate at nick, position 24, FP: 5 nM labeled DNA, 30 min, RT, PARP-1/-2 buffer per cited ref 19, PARP-3 in 12 mM HEPES pH 8.0, 30 mM KCl (low) or 60 mM KCl (intermediate), 0.12 mM EDTA
# [4] = tested on: PARP-2 WT; details: none, FP: 5 nM labeled DNA, 30 min, RT, PARP-1/-2 buffer per cited ref 19, PARP-3 in 12 mM HEPES pH 8.0, 30 mM KCl (low) or 60 mM KCl (intermediate), 0.12 mM EDTA
# [5] = tested on: PARP-2 W138A; details: 5' phosphate on one strand, FP: 5 nM labeled DNA, 30 min, RT, PARP-1/-2 buffer per cited ref 19, PARP-3 in 12 mM HEPES pH 8.0, 30 mM KCl (low) or 60 mM KCl (intermediate), 0.12 mM EDTA
# [6] = tested on: PARP-2 Y188F; details: 5' phosphate on one strand, FP: 5 nM labeled DNA, 30 min, RT, PARP-1/-2 buffer per cited ref 19, PARP-3 in 12 mM HEPES pH 8.0, 30 mM KCl (low) or 60 mM KCl (intermediate), 0.12 mM EDTA
# [7] = tested on: dNTR-PARP-2; details: 5' phosphate on one strand, FP: 5 nM labeled DNA, 30 min, RT, PARP-1/-2 buffer per cited ref 19, PARP-3 in 12 mM HEPES pH 8.0, 30 mM KCl (low) or 60 mM KCl (intermediate), 0.12 mM EDTA
# [8] = tested on: PARP-2 N116A; details: 5' phosphate on one strand, FP: 5 nM labeled DNA, 30 min, RT, PARP-1/-2 buffer per cited ref 19, PARP-3 in 12 mM HEPES pH 8.0, 30 mM KCl (low) or 60 mM KCl (intermediate), 0.12 mM EDTA
# [9] = tested on: PARP-2 R140A; details: 5' phosphate on one strand, FP: 5 nM labeled DNA, 30 min, RT, PARP-1/-2 buffer per cited ref 19, PARP-3 in 12 mM HEPES pH 8.0, 30 mM KCl (low) or 60 mM KCl (intermediate), 0.12 mM EDTA
substance,measurement,setting,value
47-bp duplex with 5'P nick (template 8),binding signal (% of WT affinity),[1],25
same,binding signal (% of WT affinity),[2],54
same,binding signal (fold lower affinity than WT),[3],3.5
28-bp duplex 5'OH (non-phosphorylated),binding signal (fold lower affinity than for 5'P DNA),[4],2.5
28-bp duplex 5'P (template 18),binding signal (% of WT affinity),[5],28
same,binding signal (% of WT affinity),[6],7
same,binding signal (fold lower affinity than WT),[7],4
same,binding signal (% of WT affinity),[8],45
same,binding signal (% of WT affinity),[9],25
